Data: patent publication US6686450B1, “Immunosuppressive agents that inhibit calcineurin function and uses of these agents” (Massachusetts Institute of Technology, priority 1998, dated 2004)

Assays:
Type in all cases: cell-based
[1] = system: NF-κB binding sites derived from the IL-2 promoter; assay: NF-κB luciferase reporter gene assay in Jurkat T cells; settings: coexpression
[2] = molecular target: T1, wild type full-length calcineurin (Homo sapiens, UniProt P16298); assay: co-immunoprecipitation of Cabin 1-14 and calcineurin from Jurkat T cells; settings: PMA, ionomycin or both for 3 hrs
T1 construct: expressed in transfected cells; host or cells: Jurkat T cells
From the text: In the mammalian two-hybrid system, the interaction between full-length calcineurin and Cabin 1-14 required ionomycin, which is consistent with the activation of full-length calcineurin by calcium and calmodulin. Unexpectedly, this interaction also required PMA (see FIG. 3C). Since PMA is known to activate PKC, the effect of a PKC-specific inhibitor, bisindolylmaleimide (Toullec et a., J. Biol. Chem. 266:15771-15781 (1991)), was examined on the PMA/ionomycin-stimulated interaction between Cabin 1-14 and calcineurin. […] In addition to the mammalian two-hybrid system, the interaction of Cabin 1-14 and the wild type full-length calcineurin was also confirmed by co-immunoprecipitation (See FIG. 3E). […] Jurkat T cells transfected with pSG-HACNAβ2 and pSG-Cabin 1-14 were stimulated with PMA, ionomycin or both for 3 hrs. The cells were lysed in a lysis buffer (20 mM TrisHCl, pH 7.4, 0.1M NaCl, 1% Triton X-100, 0.5% NP-40 and 0.5 mM PMSF). Cell lysates thus prepared were incubated with anti-Cabin 1 polyclonal antibodies and protein A/G agarose (Santa Cruz) for 2 hr., washed with lysis buffer and boiled in SDS sample buffer. The samples were subjected to 10% SDS-PAGE, transferred to nitrocellulose which was probed with anti-HA monoclonal antibodies and developed with ECL reagents (Amersham, Arlington Heights, Ill.). […]

[3] = system: calcineurin phosphatase activity; assay: calcineurin-mediated dephosphorylation of ΔNF-AT1 in Jurkat T cells (Western blot)
From the text: To determine if the inhibition of IL-2 promoter by Cabin1-14 is mediated through the inhibition of calcineurin phosphatase activity in vivo, the effect of Cabin 1-14 on the calcineurin-mediated dephosphorylation of the N-terminal fragment of NF-ATI (ΔNF-AT1), upon treatment with ionomycin and PMA, was examined. Jurkat T cells were transfected with expression vectors for Cabin 1-14 (pSGCabin 1-14) and for HA-epitope tagged, truncated NF-AT1 (1-460) fused to green fluorescent protein (pSG-ΔNF-AT1 (1-460) by electroporation as described above. After 48 hrs, cells were treated with PMA and ionomycin, either alone or in combination, for another 1 hr. Whole-cell lysates were prepared and subjected to 8% SDS-polyacrylamide gel electrophoresis, transferred to nitrocellulose membrane (Schleicher & Schuell, New Hampshire), probed with anti-HA epitope monoclonal antibody, and developed with ECL reagents (Amersham, Arlington Heights, Ill.).

[4] = system: AP-1 binding sites derived from the IL-2 promoter; assay: AP-1 luciferase reporter gene assay in Jurkat T cells; settings: coexpression
IL-2 promoter = IL-2 promoter luciferase reporter gene assay in Jurkat T cells; settings: PMA and ionomycin
[5] = system: NF-AT binding sites derived from the IL-2 promoter; assay: NF-AT luciferase reporter gene assay in Jurkat T cells; settings: coexpression
[6] = system: ARRE (Oct1/AP-1) binding sites derived from the IL-2 promoter; assay: ARRE (Oct1/AP-1) luciferase reporter gene assay in Jurkat T cells; settings: coexpression
[7] = molecular target: T2, interaction between Cabin 1-14 and full length calcineurin β2 (H160N) (Homo sapiens, UniProt P16298, H160N); assay: mammalian two-hybrid assay in Jurkat T cells (luciferase reporter); settings: Jurkat T cells stimulated with PMA and ionomycin
T2 construct: expressed in transfected cells; host or cells: Jurkat T cells
From the text: (§1) A mammalian two-hybrid system was established in Jurkat T cells by fusing calcineurin with the Gal4 DNA binding domain and Cabin 1-14 with the VP16 activation domain (Hsu et al., Proc. Natl. Acid Sci. USA 91:3181-3185 (1994)). The fusion plasmids for mammalian two-hybrid assays were constructed as follows: The cDNAs of calcineurin Aβ2 wild type and H160N mutant were fused to the GAL4 DB in the pM vector (obtained from Clontech, Palo Alto, Calif.) (pMCNβ2 and PMCNβ2 (H160N), and the cDNA of Cabin 1-14 was fused to the VP16 AD in the pVP16 vector (pVPCabin 1-14). Jurkat T cells were transfected with 5 μg of pMCβ2 or pMCβ2 (H160N), 5 μg of pVPCabin 1-14, 1 μg of pCMV-βGal, and 2 μg of pg5Luc, a luciferase reporter plasmid containing GAL4 promoter, by electroporation (960 μF, 250V). After 48 hr, cells were stimulated with 40 nM PMA and 2.5 μM ionomycin, either alone or in combination, for 6 hr before luciferase activity was measured for each sample. The luciferase reporter gene assay reagents were obtained from Promega, Madison, Wis., and the assay was performed per manufacturer's instructions. […] Where appropriate, the transfection efficiency was measured by co-transfecting 2 μg of CMV-driven β-galactosidase expression vector and measuring enzymatic β-galactosidase activity (Ausubel et al., Current Protocols in Molecular Biology (John Wiley & Sons, Inc., New York, 1994)).

[8] = molecular target: T3, interaction between Cabin 1-14 and wild type calcineurin β2 (Homo sapiens, UniProt P16298); assay: as above; settings: Jurkat T cells stimulated with PMA and ionomycin
T3 construct: expressed in transfected cells; host or cells: Jurkat T cells
From the text: as §1

T1 sequence (P63098 2-170 partner limits assumed, other chains not shown): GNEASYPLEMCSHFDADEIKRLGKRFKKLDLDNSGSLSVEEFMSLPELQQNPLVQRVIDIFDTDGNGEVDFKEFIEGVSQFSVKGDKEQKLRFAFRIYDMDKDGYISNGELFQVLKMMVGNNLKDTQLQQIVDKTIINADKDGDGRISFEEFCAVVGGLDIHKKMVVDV

interaction with full length calcineurin β2 (H160N) mutant [7]: strong interaction
interaction with wild type calcineurin relative to the mutant enzyme [8]: several fold weaker
B1: Cabin 1-14: C-terminal fragment of Cabin 1 polypeptide, SEQ ID NO:5 (protein, listed as Homo sapiens)
chain: KFPPEITVTPPTPTLLSPKGSISEETKQKLKSAILSAQSAANVRKESLCQPALEVLETSSQESSLESETDEDDDYMDI
effect on NF-κB reporter gene [1]: inhibited
effect on NF-κB reporter gene ([1]; listed as Cabin1-14): inhibits
coprecipitation with wild type calcineurin [2]: coprecipitated only upon stimulation of Jurkat T cells with both PMA and ionomycin
coprecipitation with wild type calcineurin ([2]; listed as Cabin1-14): dependent on both PKC and calcium stimulation
inhibition of ΔNF-AT1 dephosphorylation in the presence of PMA versus in its absence ([3]; ionomycin with PMA versus without): larger extent
effect on dephosphorylation of ΔNF-AT1 ([3]; overexpression, ionomycin in the presence or absence of PMA): inhibited
effect on AP-1 reporter gene [4]: inhibited
effect on AP-1 reporter gene ([4]; listed as Cabin1-14): inhibits
effect on IL-2 reporter gene activation (IL-2 promoter): potently inhibited
effect on IL-2 reporter gene activation (IL-2 promoter; listed as Cabin1-14): inhibit
effect on NF-AT reporter gene [5]: inhibited
effect on NF-AT reporter gene ([5]; listed as Cabin1-14): inhibits
effect on ARRE (Oct1/AP-1) reporter gene [6]: inhibited
effect on ARRE (Oct1/AP-1) reporter gene ([6]; listed as Cabin1-14): inhibits
